One molecule from article PMC10418980, “Synthesis and Evaluation of ^177Lu-DOTA-PD-L1-i and ^225Ac-HEHA-PD-L1-i as Potential Radiopharmaceuticals for Tumor Microenvironment-Targeted Radiotherapy” (International Journal of Molecular Sciences, 2023) can be followed below.

A short description of series [1]: Serum stability by radio-HPLC. The series is classed as in vitro ADME, human. On the procedure:
The radiochemical purity of the radioconjugates was determined by reversed-phase HPLC (Waters) with radiometric and UV-vis detectors. The analysis was carried out with a Discovery C18 column (particle size: 5 µm, length: 25 cm, diameter: 4.6 mm). A linear gradient (rate flow: 1 mL/min) of CH3CN-0.1% TFA (B)/H2O-0.1%TFA (A), from 100% to 10% of A in 30 min, was used. For ^225Ac-HEHA-PD-L1-i, fractions of 1.0 mL were collected, and the activity was evaluated in a NaI(Tl) detector (Auto In-v-tron 4010; NML Inc., Houston, TX, USA).
The ^225Ac-HEHA-PD-L1-i and ^177Lu-DOTA-PD-L1-i stability was evaluated in the medium they were obtained after labeling (water/ascorbic acid/sodium acetate) at 0.33, 3, 24, 48, and 72 h with radio-HPLC, as previously described. The conjugate solutions were diluted in human serum (5x) for stability assessment. The conjugates (n = 3) were incubated at 37 °C, and samples were taken at 0.33, 3, 24, 48, and 72 h.

Series [2] relates to mice intravenously injected with HCC827 lung cancer cells (PD-L1+). The series can be described thus: Biodistribution and biokinetic models in mice with HCC827 lung micrometastases. In kind it is in vivo, Nu/Nu mice. The conditions noted are these: mouse, in vivo. On the procedure:
Under an approved protocol (No. 07-2018-2021), all animal procedures followed the ethical regulations for handling laboratory animals (NOM-062-ZOO-1999) and the Institutional Animal Care and Use Committee requirements. Male Nu/Nu (UPEAL, […], I.PN., Mexico City, Mexico) mice aged 6–8 weeks were maintained in a pathogen-free barrier facility. Mice were injected with 3.7 MBq (50 µL) of ^177Lu DOTA-PD-L1-I or 3.7 kBq (50 µL) of ^225Ac-HEHA-PD-L1-i in the tail vein and sacrificed at 0.5, 1, 3, 24, 72, and 96 h (n = 3). The heart, lungs, liver, pancreas, spleen, kidneys, small intestine, brain, and stomach were dissected to be measured in a NaI(Tl) radioactivity detector. The results are expressed as the percentage of injected dose (%ID) per organ. Blood samples were also extracted, and the activity was recorded as %ID/g. A second group of mice was inoculated intravenously with 1 × 10^6 HCC827 cells. The animals were treated with 3.7 MBq (50 µL) of ^177Lu DOTA-PD-L1-i (n = 3) or 3.7 kBq (50 µL) of ^225Ac-HEHA-PD-L1-i (n = 3) via tail vein injection on day five post-tumor cell inoculation. The animals were dissected as described above. In the case of ^177Lu DOTA-PD-L1-i, radioisotopic/X-ray in vivo/ex vivo images were obtained in a Preclinical Imaging System (Bruker, XTREME). For in vivo imaging, mice were anesthetized with oxygen and 2% isoflurane.
The %ID values were used to obtain the biokinetic models ( qht ). The Ah(t) functions were obtained by decay-correcting the biokinetic models, that is, by adding to the biological constant (λB ) the radioactive constant (λR ), as follows (Equation (1)):(1) At=Be^−(λR+λB)t+Ce^−(λR+λB)t+De^−(λR+λB)t

The test system of series [3] is kidney and liver tissues from mice. The experiment in a line: Histopathological assessment (H&E). In kind it is in vivo. To be noted: mouse, in vivo. On the procedure: Healthy lungs, kidneys, liver, and lungs from mice injected i.v. with HCC827 cells were fixed with 4% paraformaldehyde for 24 h at room temperature, embedded in paraffin, and sectioned in 4–5 µm thick sections using a microtome. Paraffin sections of lung samples were deparaffinized in xylene and rehydrated in a series of graded alcohols. Dewaxed tissue sections were stained with hematoxylin and eosin (H&E). The sections were assessed using a light microscope (magnification of 100x) (Zeiss; Mod. Axioscope: Oberkochen, Germany). Images were acquired with a digital camera (5 MP high-speed color; AmScope; Mod.Mu500: Irvine, CA, USA).

In series [4] the test system is mice inoculated with HCC827 lung cancer cells. The series can be described thus: Creatinine and liver enzyme levels. In kind it is in vivo. The conditions noted are these: mouse, in vivo. On the procedure: Mouse blood samples collected at 96 h after radiopharmaceutical administration were used for the determination of alanine aminotransferase (ALT), creatinine, and aspartate aminotransferase (AST). Creatinine was measured titrimetrically. The picrate method was used. AST and ALT were quantified using a Roche Diagnostics kit for UV assays.

SMILES strings stand for the structures. A value given as a limit tells only on which side of the number the result lay.

On to `CCCC[C@H]1C(=O)N(C)[C@@H](CCCC)C(=O)N[C@@H](CCCNC(=S)Nc2ccc(CC3CN(CC(=O)O)CCN(CC(=O)O)CCN(CC(=O)O)CCN(CC(=O)O)CCN(CC(=O)O)CCN3CC(=O)O)cc2)C(=O)N[C@H](C(=O)NCC(N)=O)CSCC(=O)N[C@@H](Cc2ccc(O)cc2)C(=O)N(C)[C@@H](C)C(=O)N[C@@H](CC(N)=O)C(=O)N2CCC[C@H]2C(=O)N[C@@H](Cc2c[nH]cn2)C(=O)N[C@@H](CC(C)C)C(=O)N2C[C@H](O)C[C@H]2C(=O)N[C@@H](Cc2c[nH]c3ccccc23)C(=O)N[C@@H](CO)C(=O)N[C@@H](Cc2cn(C)c3ccccc23)C(=O)N1C` (stereo partly drawn) [^225Ac-HEHA-PD-L1-i, metal not drawn], for which, in series [1], the “radiochemical purity after 72 h in human serum” value is 64 ± 4% and the “rate of decrease of radiochemical purity in human serum” value is listed as “approximately 0.388 %/h”. Besides, in series [2], the “Ac-225 activity present in bone” value is 0.3 ± 0.2 % ID/g; the “biokinetic model A(t), kidney” value was 12.60e^-3.65t + 8.14e^-2.54t; the “biokinetic model A(t), liver” value is 25.3e^-1.90t + 17.4e^-0.01t; the “biokinetic model A(t), lung (HCC827 cancer cells)” value came to 11.20e^-0.002t + 1.73e^-1.20t. For the same molecule, in series [2], the “half-life, kidney, second component” value is 16.2 min; the “injected dose in kidney eliminated with half-life 0.19 h” value was 12.6 % of the injected dose; the “injected dose in kidney eliminated with half-life 0.27 h” value is reported as 8.14 % of the injected dose; the “injected dose retained in liver and eliminated with the slow half-life” value was 17.4 % of the injected dose. In addition, in series [2] (iv), the “half-life, kidney, fast phase” value came out at 11.4 min; the “half-life, liver, slow phase” value is 69.3 h; the “uptake in lung micrometastases” value was above 30 % ID. For the same molecule, the “histological staining (H&E) of liver and kidney” value in series [3] is “no pathologic changes in the liver and kidney”. The “effect on the function of liver and kidney” value in series [4] is given as “No significant cytotoxic effect”.
